Laboratory results published in publication PMC5209733, “U24 from Roseolovirus interacts strongly with Nedd4 WW Domains” (Scientific Reports, 2017).

Legend:
[1] = molecular target: hNedd4L-WW3* domain (third WW domain of human Nedd4-like protein, GST tag removed) (human) (UniProt Q96PU5); test: ITC; peptide titrated into the cleaved WW domain (40 to 150 uM) in the cell; 10 mM sodium phosphate, pH 7.4, 25 °C; MicroCal VP-ITC; bimolecular interaction model; three runs (further runs with 100 mM and 500 mM NaCl told in words only)
[2] = molecular target: hNedd4-WW3* domain (third WW domain of human Nedd4, GST tag removed) (human) (UniProt P46934); test: as above
[3] = molecular target: rNedd4-WW2 domain (second WW domain of rat Nedd4, GST tag removed) (rat) (UniProt Q62940); test: as above
[4] = molecular target: rNedd4-WW3/4 domain (third WW domain of rat Nedd4, GST tag removed) (rat) (UniProt Q62940); test: as above
Fyn SH3 (Homo sapiens) = Fyn SH3 (Homo sapiens) (UniProt P06241); details: cited from earlier work
Fyn SH3 (Homo sapiens), sequence (P06241 79-146): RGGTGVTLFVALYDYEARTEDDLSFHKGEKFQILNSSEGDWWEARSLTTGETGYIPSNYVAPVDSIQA

hNedd4-WW3* domain (third WW domain of human Nedd4, GST tag removed) (human), sequence (P46934 whole entry, the tested form may be a part): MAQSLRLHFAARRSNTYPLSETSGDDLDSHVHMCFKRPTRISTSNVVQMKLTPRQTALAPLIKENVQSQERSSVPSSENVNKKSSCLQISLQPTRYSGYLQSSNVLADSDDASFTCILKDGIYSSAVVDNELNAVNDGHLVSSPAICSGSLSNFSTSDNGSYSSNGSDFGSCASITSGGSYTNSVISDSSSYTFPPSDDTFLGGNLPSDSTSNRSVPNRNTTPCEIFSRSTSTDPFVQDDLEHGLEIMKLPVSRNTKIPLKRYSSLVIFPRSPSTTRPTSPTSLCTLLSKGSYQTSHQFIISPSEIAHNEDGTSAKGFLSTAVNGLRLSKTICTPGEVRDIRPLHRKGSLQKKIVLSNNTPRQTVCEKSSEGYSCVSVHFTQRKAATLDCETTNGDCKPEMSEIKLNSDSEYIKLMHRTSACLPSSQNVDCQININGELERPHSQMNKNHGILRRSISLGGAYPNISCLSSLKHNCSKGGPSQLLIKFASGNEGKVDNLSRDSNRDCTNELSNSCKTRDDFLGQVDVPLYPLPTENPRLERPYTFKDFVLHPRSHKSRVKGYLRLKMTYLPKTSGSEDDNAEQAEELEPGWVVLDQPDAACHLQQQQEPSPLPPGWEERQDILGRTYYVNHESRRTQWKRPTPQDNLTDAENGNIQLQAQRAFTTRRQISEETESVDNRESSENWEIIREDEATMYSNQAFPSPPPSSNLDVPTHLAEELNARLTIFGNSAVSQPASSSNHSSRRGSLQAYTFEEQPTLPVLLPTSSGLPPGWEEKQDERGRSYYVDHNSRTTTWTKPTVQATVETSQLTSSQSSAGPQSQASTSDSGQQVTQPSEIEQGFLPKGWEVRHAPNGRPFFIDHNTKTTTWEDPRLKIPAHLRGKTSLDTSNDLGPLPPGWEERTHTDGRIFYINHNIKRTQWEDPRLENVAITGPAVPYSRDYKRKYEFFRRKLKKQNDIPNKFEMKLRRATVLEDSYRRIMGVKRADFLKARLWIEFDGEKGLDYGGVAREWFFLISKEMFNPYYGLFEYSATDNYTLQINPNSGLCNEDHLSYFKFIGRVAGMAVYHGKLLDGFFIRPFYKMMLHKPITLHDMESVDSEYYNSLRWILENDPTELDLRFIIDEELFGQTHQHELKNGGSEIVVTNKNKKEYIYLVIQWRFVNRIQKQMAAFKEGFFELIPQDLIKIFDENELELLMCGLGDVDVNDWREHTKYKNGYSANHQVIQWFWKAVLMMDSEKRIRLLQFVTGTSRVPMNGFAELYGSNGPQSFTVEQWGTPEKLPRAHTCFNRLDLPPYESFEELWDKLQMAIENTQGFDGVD
rNedd4-WW2 domain (second WW domain of rat Nedd4, GST tag removed) (rat), sequence (Q62940 whole entry, the tested form may be a part): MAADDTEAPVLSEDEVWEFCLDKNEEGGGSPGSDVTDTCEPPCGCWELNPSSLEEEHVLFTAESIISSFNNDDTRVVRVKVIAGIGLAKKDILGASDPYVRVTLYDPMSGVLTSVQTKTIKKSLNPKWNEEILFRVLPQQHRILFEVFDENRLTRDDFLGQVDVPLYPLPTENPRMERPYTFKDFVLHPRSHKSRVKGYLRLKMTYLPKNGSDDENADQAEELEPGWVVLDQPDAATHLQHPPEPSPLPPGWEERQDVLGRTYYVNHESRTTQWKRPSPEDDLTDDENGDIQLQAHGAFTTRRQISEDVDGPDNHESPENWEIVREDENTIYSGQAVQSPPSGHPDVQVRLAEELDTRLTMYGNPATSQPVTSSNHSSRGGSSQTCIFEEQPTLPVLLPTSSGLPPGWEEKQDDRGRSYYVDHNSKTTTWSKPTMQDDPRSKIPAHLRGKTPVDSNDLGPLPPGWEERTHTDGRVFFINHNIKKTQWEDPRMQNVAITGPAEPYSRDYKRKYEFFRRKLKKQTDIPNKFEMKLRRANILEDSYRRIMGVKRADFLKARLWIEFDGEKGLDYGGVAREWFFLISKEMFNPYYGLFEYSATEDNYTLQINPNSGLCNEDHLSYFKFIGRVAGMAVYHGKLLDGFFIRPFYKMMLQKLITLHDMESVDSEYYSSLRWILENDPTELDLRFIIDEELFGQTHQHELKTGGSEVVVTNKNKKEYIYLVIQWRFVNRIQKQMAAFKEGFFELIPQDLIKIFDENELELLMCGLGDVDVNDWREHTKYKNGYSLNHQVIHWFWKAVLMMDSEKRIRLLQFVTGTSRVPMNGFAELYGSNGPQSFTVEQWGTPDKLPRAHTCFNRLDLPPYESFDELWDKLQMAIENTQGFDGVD
rNedd4-WW3/4 domain (third WW domain of rat Nedd4, GST tag removed) (rat), sequence (Q62940 452-499): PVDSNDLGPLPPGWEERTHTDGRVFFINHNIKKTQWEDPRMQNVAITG
hNedd4L-WW3* domain (third WW domain of human Nedd4-like protein, GST tag removed) (human), sequence (Q96PU5 496-539): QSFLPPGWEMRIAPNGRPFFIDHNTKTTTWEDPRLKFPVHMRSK

Row | Substance | Kd [1] | dH [1] | Kd [2] | dH [2] | Kd [3] | dH [3] | Kd [4] | dH [4] | Kd (Fyn SH3 (Homo sapiens))
1 | Nogo-A PY motif peptide | 4 µM | -13.8 kcal/mol | – | – | – | – | – | – | –
2 | U24-6A peptide (15-mer, N-terminus of U24 from HHV-6A) (from UniProt Q69559 1-15) | – | – | 9.7 µM | -12.7 kcal/mol | 155 µM | -12.9 kcal/mol | – | – | –
3 | U24-7 peptide (15-mer, N-terminus of U24 from HHV-7) | – | – | 1.98 µM | -16.8 kcal/mol | 87 µM | -18.2 kcal/mol | 21 µM | -15.2 kcal/mol | –
4 | U24-6A (from UniProt Q69559) | – | – | – | – | – | – | – | – | 5000 µM
